Data as given in publication PMC6317822, “RSM1, an Arabidopsis MYB protein, interacts with HY5/HYH to modulate seed germination and seedling development in response to abscisic acid and salinity” (PLoS Genetics, 2018).

How the values were obtained:
[1] = molecular target: T1, GST-HY5 (ELONGATED HYPOCOTYL 5) (Arabidopsis, UniProt O24646 1-168); assay: pull-down; 2 ug GST or GST fusion protein mixed with 2 ug His-RSM1 in 500 uL GST binding buffer (50 mM Tris-HCl pH 7.5, 100 mM NaCl, 0.1% Nonidet P-40), Glutathione Sepharose 4B beads, 4 C, 2 h; four washes; immunoblot with anti-GST or anti-His; details: both partners purified
T1 construct: HY5 (ELONGATED HYPOCOTYL 5), bZIP transcription factor, Arabidopsis, At5g11260; the CDS cloned into the EcoRI and XhoI sites of pGEX-4T-1
T1 sequence (looked up): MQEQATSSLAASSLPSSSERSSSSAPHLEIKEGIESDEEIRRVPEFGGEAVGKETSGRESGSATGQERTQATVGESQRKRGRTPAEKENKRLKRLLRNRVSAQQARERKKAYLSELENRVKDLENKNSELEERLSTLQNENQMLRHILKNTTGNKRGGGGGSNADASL

GST-HYH [2] = molecular target: T2, GST-HYH (Arabidopsis thaliana, UniProt Q8W191 1-149); assay: EMSA; EMSA: 2 ug protein in 20 uL, 10 mM Tris-HCl pH 7.5, 50 mM KCl, 1 mM DTT, 50 ng/uL poly(dI-dC), 25 C, 20 min; 4-6% native PAGE, 0.5x TBE; details: protein: recombinant; tags: GST (pGEX-4T-1); chain copies: 2; label: biotin 5'
T2 sequence: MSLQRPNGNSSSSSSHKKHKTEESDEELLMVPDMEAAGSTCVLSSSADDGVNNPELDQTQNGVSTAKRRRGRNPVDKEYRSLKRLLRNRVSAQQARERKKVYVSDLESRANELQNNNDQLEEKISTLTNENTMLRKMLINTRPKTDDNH

His-HY5 [3] = molecular target: T3, His-HY5 (Arabidopsis thaliana, UniProt O24646 1-168); assay: as above; details: protein: recombinant; tags: His; chain copies: 2; label: biotin 5'
T3 sequence: T1 sequence (looked up)

GST-HYH [4] = molecular target: T2, GST-HYH; assay: competition; unlabeled competitor vs N1; EMSA: 2 ug protein in 20 uL, 10 mM Tris-HCl pH 7.5, 50 mM KCl, 1 mM DTT, 50 ng/uL poly(dI-dC), 25 C, 20 min; 4-6% native PAGE, 0.5x TBE; details: protein: recombinant; tags: GST (pGEX-4T-1); chain copies: 2; label: unlabeled
His-HY5 [5] = molecular target: T3, His-HY5; assay: as above; details: protein: recombinant; tags: His; chain copies: 2; label: unlabeled
GST-HY5 = molecular target: T4, GST-HY5 (Arabidopsis thaliana, UniProt O24646 1-168); assay: EMSA; EMSA: 2 ug protein in 20 uL, 10 mM Tris-HCl pH 7.5, 50 mM KCl, 1 mM DTT, 50 ng/uL poly(dI-dC), 25 C, 20 min; 4-6% native PAGE, 0.5x TBE; details: protein: recombinant; tags: GST (pGEX-4T-1 in Methods); chain copies: 2; label: biotin 5' on both strands; blunt
T4 sequence: T1 sequence (looked up)

His-RSM1 = molecular target: T5, His-RSM1 (Arabidopsis thaliana, UniProt Q9SIJ5 1-101); assay: as above; details: protein: recombinant, tags: His (pET28a)
T5 sequence: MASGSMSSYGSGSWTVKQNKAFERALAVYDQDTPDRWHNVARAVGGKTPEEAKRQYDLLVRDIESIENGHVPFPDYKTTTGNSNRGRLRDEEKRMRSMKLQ

B1: His-RSM1 (RADIALIS-LIKE SANT/MYB 1) (natural protein, Arabidopsis, UniProt Q9SIJ5 1-101, looked up)
chain: T5 sequence
notes: the CDS of RSM1 cloned into the BamHI and SacI sites of pET28a; also called MEE3; MATERNAL EFFECT EMBRYO ARREST 3; source: E. coli BL21 (pET28a-RSM1, 1 mM IPTG), purified with Ni-NTA beads
[1]
  binding result: binds

B2: RSM1 promoter C-box probe (WT) (dsDNA)
DNA 1: ATCTAGAGAATGACGTCATAACCACTAA
DNA 2: TTAGTGGTTATGACGTCATTCTCTAGAT
GST-HYH [2]
  binding result: binds
His-HY5 [3]
  binding result: binds

B3: RSM1 promoter m1 competitor (dsDNA)
DNA 1: GCTGCAAGAATGACGTCATAACCACTAA
DNA 2: TTAGTGGTTATGACGTCATTCTTGCAGC
GST-HYH [4]
  binding result: binds
His-HY5 [5]
  binding result: binds

B4: ABI5 promoter probe (HY5 site) (dsDNA)
DNA 1: CCTTATGCAGTGAATAGTCCACGTGCACTCCCAATGGAAGTTCGGAATC
DNA 2: GATTCCGAACTTCCATTGGGAGTGCACGTGGACTATTCACTGCATAAGG
GST-HY5
  binding result: binds
His-RSM1; label: biotin 5' on both strands, blunt
  binding result: no binding

B5: RSM1 promoter P1 (dsDNA)
DNA 1: GAGACTTGTCCCTAACTTTCAACCAAAGACTTGTAATTTTCCGCGAGCAC
DNA 2: GTGCTCGCGGAAAATTACAAGTCTTTGGTTGAAAGTTAGGGACAAGTCTC
His-RSM1; label: biotin 5'
  binding result: binds

B6: RSM1 promoter P2 (dsDNA)
DNA 1: GTGAGCTTTGTGCTCTGATTAGAGACCAGACTGTTCCATGAATTAAGTAC
DNA 2: GTACTTAATTCATGGAACAGTCTGGTCTCTAATCAGAGCACAAAGCTCAC
His-RSM1; label: biotin 5'
  binding result: binds

B7: RSM1 promoter m2 competitor (dsDNA)
DNA 1: ATCTAGAGAATAGTACTATAACCACTAA
DNA 2: TTAGTGGTTATAGTACTATTCTCTAGAT
GST-HYH [4]
  binding result: no binding
His-HY5 [5]
  binding result: no binding

B8: RSM1 promoter m3 competitor (dsDNA)
DNA 1: ATCTAGAGAATGACGTCATAACTGTCGG
DNA 2: CCGACAGTTATGACGTCATTCTCTAGAT
GST-HYH [4]
  binding result: binds
His-HY5 [5]
  binding result: binds
